# Experimental data taken from the DeepSol protein solubility set.
# Assay: soluble on expression in E. coli; label from the status in PepcDB or PDB records
row,Sequence,soluble on expression in E. coli
1,MGSDKIHHHHHHMQNGYYQATGGMVTQFNKLDVITNNLANINTSGYKRDDVVIADFKRIFKETQDELPIENHTRDASRFVNTTIDGIPQVSQEYTDFSLGSLKATNNPLDLAMTREDAFYLVQTKDGEVRLTKDGNFQLDDEGYLVNKQGYKVLSSDYFNNPQNAGIRIPNGAVQISVDKNGSIEVDGAQNARLFVAQVDDIRALQKDGDNVYKIDDLTRIRDLKNSNAIRQGFSQGSNVNPVTEMVGLIEANRMVEMYQKVMTAHMDDLNQEAINKLAAVK,not soluble
2,MILREFCAENLTDLTRLDKAIISRVELCDNLAVGGTTPSYGVIKEANQYLHEKGISVAVMIRPRGGNFVYNDLELRIMEEDILRAVELESDALVLGILTSNNHIDTEAIEQLLPATQGLPLVFHMAFDVIPKSDQKKSIDQLVALGFTRILLHGSSNGEPIIENIKHIKALVEYANNRIEIMVGGGVTAENYQYICQETGVKQAHGTRITQMAGDPLEHHHHHH,soluble
3,MSLSVPQKRYFLGLHIGHDRAITVADDTNLVFHTAVERLDRKKHSDSFHLPVEEIKTVLLYLNVDVSELRGVCISYLAVDASRVSMTLEASFRDAFPDFEGRFSALDHHLAHALGAKVCSGFDEALVVVADGAGDQRLWGSQSETIYHVSSDTFYLLDERVQSPPLTYINRPEFYDPSYFRPDDQERQISLGLKYEQITYLCGFGPGQAGQTMALAAFGKPLFDYRNMLPKDLSFSLRYTDFLREFEALARADGLSLIQFAKSRRSDIAATYQAYLSEALSAIVKDALDRFPSKRVCFSGGLFLNCLSNRRLHDEHPDRELFFFPACNDEGQSIGTAAYAYWQEHSRLPREGHHHHHH,not soluble
4,MNFEGKIALVTGASRGIGRAIAETLAARGAKVIGTATSENGAQAISDYLGANGKGLMLNVTDPASIESVLEKIRAEFGEVDILVNNAGITRDNLLMRMKDEEWNDIIETNLSSVFRLSKAVMRAMMKKRHGRIITIGSVVGTMGNGGQANYAAAKAGLIGFSKSLAREVASRGITVNVVAPGFIETDMTRALSDDQRAGILAQVPAGRLGGAQEIANAVAFLASDEAAYITGETLHVNGGMYMV,soluble
5,MTTEKINLLDFDRKGLRTFFAEELGEKAFRAEQVMKWIYHFGCDDFDQMNNINKQLREKLKAKCEIRAPYVSEAQHSADGTIKWAMRVGDQDVETVYIPEDDRATLCVSSQVGCALECKFCSTAQQGFNRNLRVSEIIGQVWRAAREIGLEKETGRRPITNVVMMGMGEPLLNMKNLIPALEIMLDDLGFGLSKRRVTVSTSGVVSGLEQMIGQIDVALAISLHAPNDKLRSEIMPINDRWNIEAFLEVVRRYIASSNANRGKVTVEYVLLDHVNDGTEHAHELAELLKGTPCKINLIPFNPYPGSPYKKPSNSRIDRFQKTLMQYEHTVTIRKTRGDDIDAACGQLVGDVIDRTKRTKAKQFDGQAIPVKTL,not soluble
6,MFEIRDVDLAGRIGRIYTQHGVVETPAFFPVIDVYRQEVSVDEVRAAGFGQVITNAYLLWKRFGWEAAEKGVHRILGFPGVVMTDSGAYQILEYGGVELSQGEVVEYQKRLGSDIAVILDIPTGDVGRREAEESVRETIRRALEARVMIEGDERIWVYPVQGGRYFDLVEESARVGGRLGFYRMYGIGSPTVFLERYMYHVVVEAVYRAKKHLPWGRPVHLFGAGHPLIFPYAVALGVDTFDSASYILYAREGRYITEYGVYRIEDLDYLPCSCPVCSRYTPQELREMDRVERTRLLALHNLYVISASMRRVKQAIREGRLWELLEETSRKHPSTARVMARMRRYIDALEKGSARGRGVVRGVRAYGLESLSNPRLSRFSSDAARLVEAMAEKWGGGKAVLKPLDPKPEPGQCESMVGGGEWILFYQPFLGVFPVEACGAYPSLQIDYPQEGLPAEVIGDLASKIASTVSILRGRGFTVRLEYCGKVEWQARAVEALKTAAAGDLPTVEACG,soluble
7,MTDPSSSPIRPDMVEAARKFMLTPKVKETPFEEQRQFLLGKGVSEAEILEARASIPPEQLRSQIGTENMIPIGGHPQMMIAPKQNGIVSFAQSAVVLGSISYAGYRFVRSYVLPRFFDIPDPATEEIRQLQSQVDDLQNSIKFIMDSVSQTTQQLATQQSEISRALYSVANRDADLNRVESGISTIKSLLLSQHNFAPIVTPSVTSSIPSWQQSATPTSATSITTTTTSEAASGYATPPANFKESSLADELADIENIE,not soluble
8,MDPLSAASKIAGSGLEVQSTRLRIVSENIANARSTGDTPGADPYRRKTVTFGSELDHVSGVERVKVKKLGVDRGDFVHEYDPGNPAADTNGMVKMPNVNVLIEMADMREANRSYDANLQVIRQTRDLVASTIDLLKASQ,not soluble
9,MGSDKIHHHHHHMIIFFQLSSPYLLDIYHLDILYGMSFIKAIIKKMSGGVLLKIIDTVPFFLKYYESSLAFLKHYYSQYPKIFNEYFAYHCKDTEERHDQSLAKYPESLLAIQQVRRAIIPIIEEVVEEYGRLYQVTFPTEVNLIVGGYGSNAYTHRQIIPDVTFALERLSPKVEHLQAIVAHDFGHVAHNILSSEAGMDWGKVQWDSPLIWLYQEGAAIHFSRQIAPQLPPAMYFSFDAEGEEWLRFFKENTHAVKSAFAHDYVQETSQSMFQEWFSINGGKRFGYNRLGYLVGDLLFQHFTKTKGERNAITAWKEGRFREEVERWFKR,not soluble
10,MADTRPERRFTRIDRLPPYVFNITAELKMAARRRGEDIIDFSMGNPDGATPPHIVEKLCTVAQRPDTHGYSTSRGIPRLRRAISRWYQDRYDVEIDPESEAIVTIGSKEGLAHLMLATLDHGDTVLVPNPSYPIHIYGAVIAGAQVRSVPLVEGVDFFNELERAIRESYPKPKMMILGFPSNPTAQCVELEFFEKVVALAKRYDVLVVHDLAYADIVYDGWKAPSIMQVPGARDVAVEFFTLSKSYNMAGWRIGFMVGNKTLVSALARIKSYHDYGTFTPLQVAAIAALEGDQQCVRDIAEQYKRRRDVLVKGLHEAGWMVEMPKASMYVWAKIPEPYAAMGSLEFAKKLLNEAKVCVSPGIGFGDYGDTHVRFALIENRDRIRQAIRGIKAMFRADGLLPASSKHIHENAE,soluble
11,MHKNGKFIPLLALGFTFFLSGCDYFADKHLVEEMKEQQKEQETKINLLEKQQKEQEAKINLLEKQQATIINTTKKVTEVVGRVERKQRLFDYTELDPSQTHYFIINNGNIGLAGRILSIEPIDNGSVIHLDLVNLLSIPVSNLAFNMTWGTKKPSEAKDLPRWKQLLLNTKMDSTIELLPGAWTNVTLTLKGVSPNNLKYLKIGIDMENVIFDSIQPINDTKKKPKK,not soluble
12,MAHHHHHHMTDPTRRDPTEFLRVLRRMSNTTSWQKAMIFASKGRMVGYRLTLEHYNTVLYSQSMWGRALEMIKVIRAMQQDGVQPNGATYYYIVNGMANAEHGYNYDFNINHRLEKLQHWRVALNALQACEANGFDSTDTMHNSVIVTMTIPGMNHWREALQVLKKIIDEDRQLHPNMVRFLHDCLIRNYRPREASDLLRCAAERGVKGYETAWETDVYKGKPTDAQLEASQAEAAVTDAAGTECVAGSSGALSSSTSDCKKAAHNSAQASAAATLMALQLRGDQTLPPPQMRSALQEEMERSITAERQALRPFTAGLHYTEMRSVFRPRVHRQLWYQWHQIANRYRPTASLKRRQLAPRDSPTGIPAWNRL,not soluble
13,MGSDKIHHHHHHMRENSDVLANSGFRQSVEVQIKDKQSYKRLNMTLVGQQHPDYLILELSRQYCWQDILPMLATEKNVAIKTVSPKGEQVTGVVDILHITQYPQKLLFVSYPRNASVEILRSSPRVGVNCDARLQLQLKDKLGEPLTGKIVDISNKGIAFNYFGTSPVNIEDSRGLEAEVRVKTDDETILLQQLITRSIRSVGPQLWQLGLSYKEKPNNLQDLVSKLFLHSTPVRELLSDNDPGWDASDNTLQGESESVQFSTN,not soluble
14,QTVARKCSLTGEWDNDLGSIMTIGAVNDNGEFDGTYITAVADNPGNITLSPLLGIQHKRASQPTFGFTVHWNFSESTSVFVGQCFVDRSGKEVLKTKWLQRLAVDDISDDWIATRVGNNDFTRQHTVEE,soluble
15,MKTTTATNSILFKLYFAPGATEQISIEYYNLQQLIEKLELKLGELGLNFNVVFWKNDKGNLISMSQNAQRVLKKMANRDSASIFVIADSDSSDSSSDSSDSGDEDVIIADAPEVAPHRRHCGRRDRSRSRGFDRSRSRSRSRSNFHDHHKRHQMKKLMWKRFQESHGHPEFKRRHCFGGRRARSASPIGRRPCREGEEFKRHPLGSFGTPCGREEFEGPTGGFGRPFGRRGMDHHGFNFHRHHHPFGAFHGFGGHHHGFGHGFGHHGFKRQHPFERRFGRC,not soluble
16,MKICLQAGAVKQIENYFSISTDGVEIRIWFLTDSVVRIRAGFDGDFVEESYSLVTTAWEDRMDMFMKHYRKRIQTAEAQLTDGLEKAVIQGKVLRVEVEKNPFRICVYDAENTQIHADIVDLAYMEDSNNRRIHTSEITEDDCFY,not soluble
17,MAHHHHHHMRGCLHFTRVARHKRHDKGGNAHNFAFDTLTKVYRDAVYLPQEKYRRGLMHPERSPGAPPSQAALVAPSSSSDVTNHVGNIGVMSSVATKLSDWMEQQPHHQTKHHTNGGGGTGHASATASCATPIARRSVASSSPSPAPSAAAATTDESHVDDEAIRRRLRAHLFSDKIQPGQPRTPPSTPVATASASPRRSGVQAEILSVYRSMLREVSRMQDADTRRSLSAYIRQEYDKQCDIPRKNIMKIEWRLNYGKRKLEELQAMSKHTKFTMMR,not soluble
18,AIGRYTPADSTQELRDAARRLLPSSSLDKDLERLLRTWHKGYSTKTKRGERPCINSDTGPYTSDSVYIRRLSALPSAVPIQFNPAVKQCIKLYTEERRRLVRYMLSLADLYFPQIEETLDRHNLPIELKYLTIV,not soluble
19,GCGVEEKTEVQLLKEMPKPKAMTIDPSLSQKEATEMVHAAQRFYAFWDTGKEELIPQTVTENFFDHTLPKGRPQGTEGLKFAAQNFRKIVPNIHCEIEDLLVVGDKVTARLSFTGTHNDKKIDFFAIDILHVKDGKITEDWHLEDNLTLKQQLGLIAEE,soluble
20,MGSDKIHHHHHHMSTDNYYIRRRLLSSLTAHLDQPEITVLVGPRQSGKTTILKRLESELRAGGRKTLWLNLDFEDDFRHVASEGALLQKIQLELGSGGGVVFIDEIQRRENAGLFLKGLYDQGLPWKFVVSGSGSIELKEKISESLVGRKRLFELSTVSFGEFADFRTGYRYTDRLRDYFRTEPSKTDQLFREYLMYGGYPRVVLADTHQEKMATINEIFRSYLEKDIVYLLRVEKSESFSNLVRVLATQSGKMVSYSELSATLGLSLATVKLYLWYLEKTYIIDKVTPWYTNIRKEITKAPVYYFRDIGLRNFAAGSFGALSDSEAGFAFQNVIHAMLKERFPLADSTIHYWRTKDKAEVDFVLRSGDTVTPLEVKYRDMKKLDVRRSFLGFLTRYHPEFGYIVNRNYSDEALICQTRVRCLPYWELMFEEAFP,not soluble
21,MGDIEDAPRIISGIGELDRATGGGFVRGSALLVGGDPGIGKSTLLTQAAAALASRGHRIVYVSGEEAVAQIRLRAQRLGVADSPVELAAETNVEDILATIADGKRPDLVILDSIQTLWTDLADSAPGTVTQVRAAAQAMIRYAKSTGAAIVLVGHVTKEGQIAGPRVVEHMVDGVLYFEGEGGHHYRILRTVKNRFGLEHHHHHH,not soluble
